Here are results for one substance from patent US10746644B2, “Vitro method and apparatus for analysing the behaviour of substances in simulated physiological environment” (Hoffmann-La Roche Inc., priority 2014, dated 2020).

The data set is described as follows: Effect of dialysis membrane MWCO on diffusion of BSA and IgG from VH-compartment to FT-compartment. The data set is classed as in vitro ADME, porcine. The note with it: DM-1 50 kDa MWCO compared with DM-1 100 kDa MWCO; DM-2 100 kDa; HA gel 0.6% w/v. How it is done: Diffusion of bovine serum albumin (BSA) and Immunoglobulin G (IgG) in the flow direction from VH-compartment to FT-compartment was investigated by varying MWCO of the dialysis membrane. The experiment was performed similarly as described in example 1 with minor modifications. Two different MWCO dialysis membranes were used as DM-1, with MWCO 50 kDa and 100 kDa, whereas the MWCO of DM-2 was kept constant at 100 kDa. VH-compartment was filled with 3.5 mL of sterile porcine VH and GM-compartment was filled with about 3 mL of sterile HA gel (0.6% w/v). FT-compartment was filled with sterile PBS.

As for “FITC-BSA: FITC-labelled bovine serum albumin (66 kDa), globular macromolecule”, the “diffusion into FT compartment” value was “restrained the diffusion of both IgG and BSA significantly”.
